Source: patent US20110171218A1

What follows are substances tested against TNF-alpha (assay: cell-based or functional assay).
Parameters: unit not given beside the values

Sequence of TNFR2-h(1)Fc (chain): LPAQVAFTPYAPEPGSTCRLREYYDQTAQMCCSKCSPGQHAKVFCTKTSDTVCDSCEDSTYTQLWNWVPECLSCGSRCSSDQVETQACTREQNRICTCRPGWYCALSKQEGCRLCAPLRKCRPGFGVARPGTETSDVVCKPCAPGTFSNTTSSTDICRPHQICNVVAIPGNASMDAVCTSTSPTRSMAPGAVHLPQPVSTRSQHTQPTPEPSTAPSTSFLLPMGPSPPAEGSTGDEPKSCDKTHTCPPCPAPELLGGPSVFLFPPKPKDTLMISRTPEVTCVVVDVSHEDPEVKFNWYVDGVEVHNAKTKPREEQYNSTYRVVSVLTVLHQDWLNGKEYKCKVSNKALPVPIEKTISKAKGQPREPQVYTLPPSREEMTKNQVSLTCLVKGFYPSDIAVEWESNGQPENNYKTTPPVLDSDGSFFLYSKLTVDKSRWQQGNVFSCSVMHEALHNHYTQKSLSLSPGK

Substance	IC50 (WEHI Assay), normalized (normalized to TNFR2-h(1)Fc wt)
D47N S202N TNFR2-h(1)Fc (Fc fusion)	1.1
D47N TNFR2-h(1)Fc (Fc fusion)	1.9
D47N/E155N TNFR2-h(1)Fc (Fc fusion)	1.6
D47N/G253N TNFR2-h(1)Fc (Fc fusion)	3
E155N G253N TNFR2-h(1)Fc (Fc fusion)	0.57
E155N S202N G253N TNFR2-h(1)Fc (Fc fusion)	0.25
S202N G253N TNFR2-h(1)Fc (Fc fusion)	0.23
T203N P205S TNFR2-h(1)Fc (Fc fusion)	0.29
T222N TNFR2-h(1)Fc (Fc fusion)	0.25
TNFR2-h(1)Fc (Fc fusion)	1
